Experimental data from patent US20230183352A1 (published 2023).
Where two headings read alike, the source gives them in different places. Blank lines part the entries; values can stand above or below the binder they belong to.

Columns and labels:
[1] = target: T1, Claudin 18.2 (CLDN18.2), expressed on CHOS-CLDN 18.2 / HEK293-CLDN 18.2 / HCC827-CLDN 18.2 cells (human, UniProt P56856-2 1-261); test: FACS, CHOS-CLDN18.2 cells, 0.020 µg/ml
T1 construct: whole, on cells; The species is not repeated for the CHOS-CLDN 18.2 cells; also called claudin-18A2
Procedure: (§1) The initial concentration of the antibody was 20 μg/ml, it was diluted at 1:4, and incubated at 4° C. for 60 min.

[2] = target: T1, Claudin 18.2 (CLDN18.2), expressed on …; test: FACS, CHOS-CLDN18.2 cells, 0.078 µg/ml
Procedure: as §1

[3] = target: T1, Claudin 18.2 (CLDN18.2), expressed on …; test: FACS, CHOS-CLDN18.2 cells, 1.250 µg/ml
Procedure: as §1

[4] = target: T1, Claudin 18.2 (CLDN18.2), expressed on …; test: FACS, CHOS-CLDN18.2 cells, 20 µg/ml
Procedure: as §1

[5] = target: T1, Claudin 18.2 (CLDN18.2), expressed on …; test: FACS, CHOS-CLDN18.2 cells, 0 µg/ml (background)
Procedure: as §1

[6] = target: T1, Claudin 18.2 (CLDN18.2), expressed on …; test: FACS, CHOS-CLDN18.2 cells, 10 µg/ml
Procedure: (§2) The initial concentration of the antibody was 20 μg/mkit was diluted at 1:4, and incubated at 4° C. for 60 min.

[7] = target: T1, Claudin 18.2 (CLDN18.2), expressed on …; test: FACS, CHOS-CLDN18.2 cells, 0.313 µg/ml
Procedure: as §1

[8] = target: T1, Claudin 18.2 (CLDN18.2), expressed on …; test: FACS, MFI on CHOS-CLDN18.2 over MFI on CHOS-CLDN18.1, 10 µg/ml
Procedure: as §2

[9] = target: T1, Claudin 18.2 (CLDN18.2), expressed on …; test: FACS, CHOS-CLDN18.2 cells, 0.005 µg/ml
Procedure: as §1

[10] = target: T1, Claudin 18.2 (CLDN18.2), expressed on …; test: FACS, CHOS-CLDN18.2 cells, 5 µg/ml
Procedure: as §1

[11] = target: T1, Claudin 18.2 (CLDN18.2), expressed on …; test: FACS, CHOS-CLDN18.2 cells
Procedure: as §1

[12] = target: T1, Claudin 18.2 (CLDN18.2), expressed on …; test: FACS, CHOS-CLDN18.2 cells, 1.250 µg/ml; remark: listed apart in the source
Procedure: as §1

[13] = target: T1, Claudin 18.2 (CLDN18.2), expressed on …; test: FACS, CHOS-CLDN18.2 cells, 0.020 µg/ml; remark: listed apart in the source
Procedure: as §1

[14] = target: T1, Claudin 18.2 (CLDN18.2), expressed on …; test: FACS, CHOS-CLDN18.2 cells, 20 µg/ml; remark: listed apart in the source
Procedure: as §1

[15] = target: T1, Claudin 18.2 (CLDN18.2), expressed on …; test: FACS, CHOS-CLDN18.2 cells, 5 µg/ml; remark: listed apart in the source
Procedure: as §1

[16] = target: T1, Claudin 18.2 (CLDN18.2), expressed on …; test: FACS, CHOS-CLDN18.2 cells, 0 µg/ml (background); remark: listed apart in the source
Procedure: as §1

[17] = target: T1, Claudin 18.2 (CLDN18.2), expressed on …; test: FACS, CHOS-CLDN18.2 cells, 0.005 µg/ml; remark: listed apart in the source
Procedure: as §1

[18] = target: T1, Claudin 18.2 (CLDN18.2), expressed on …; test: FACS, CHOS-CLDN18.2 cells, 0.313 µg/ml; remark: listed apart in the source
Procedure: as §1

[19] = target: T1, Claudin 18.2 (CLDN18.2), expressed on …; test: FACS, CHOS-CLDN18.2 cells, 0.078 µg/ml; remark: listed apart in the source
Procedure: as §1

[20] = target: T1, Claudin 18.2 (CLDN18.2), expressed on …; test: FACS, CHOS-CLDN18.2 cells; remark: listed apart in the source
Procedure: as §1

B1: QP14441441 (antibody, human IgG1, kappa, V domains shown)
VH: QVQLVQSGAEVKKPGASVKVSCKASGYAFSSYWMNWVRQAPGQGLEWIGQIYPGNGDTTYNGKFKGRVTMTADKSTSTVYMELSSLRSEDTAVYYCARFVKGNAMDYWGQGTLVTVSS
VL: DIVMTQSPDSLAVSLGERATISCKSSQSLLNSGNQKNYLTWYQQKPGQPPKLLIYWASTRESGVPDRFSGSGSGIDFTLTISSVQAEDVAVYYCQNAYSYPFTFGQGTKLEIKR
notes: Humanized from QP192193
FACS reading [1]: 10100
FACS reading [2]: 27300
FACS reading [3]: 125000
FACS reading [4]: 175000
FACS reading [5]: 732
MFI [6]: 693000
FACS reading [7]: 74700
CLDN18.2/CLDN18.1 (MFI ratio) [8]: 608
FACS reading [9]: 4230
FACS reading [10]: 151000
EC50 [11]: 0.484 µg/mL
max [11]: 175000

B2: QP14501448 (antibody, human IgG1, kappa, V domains shown)
VH: EVQLVESGGGLVQPGGSLRLSCAASGFTFSSFGMHWVRQAPGKGLEWVAYISSGSNSIYYVDTVKGRFTISRDNAKNSLYLQMNSLRDEDTAVYYCARNAYYGNSFDYWGQGTLVTVSS
VL: DIVMTQSPDSLAVSLGERATISCKSSQSLLNSGNQKNYLTWYQQKPGQPPKLLIYWASTRESGVPDRFTGSGSGTVFTLTISSLQAEDVAVYFCQNNYYYPLTFGGGTKVEIKR
notes: Humanized from QP199200
FACS reading [12]: 108000
FACS reading [13]: 7460
FACS reading [14]: 117000
FACS reading [15]: 149000
FACS reading [16]: 732
MFI [6]: 540000
CLDN18.2/CLDN18.1 (MFI ratio) [8]: 501
FACS reading [17]: 2480
FACS reading [18]: 45600
FACS reading [19]: 14200
EC50 [20]: 0.498 µg/mL
max [20]: 149000

B6: QP192193 (antibody, human IgG1, V domains shown)
VH: QVQLQQSGAELVRPGSSVKISCKASGYAFSSYWMNWVKQRPGQGLEWIGQIYPGNGDTTYNGKFKGQATLTADKSSSTVYMQLSSLTSEDSAVYFCARFVKGNAMDYWGQGTSVTVSS
VL: DIVMTQSPSSLTVTAGEKVTMSCKSSQSLLNSGNQKNYLTWYQQNPGQPPKMLIYWASTRESGVPDRFTGSGSGIDFSLTISSVQAEDLALYYCQNAYSYPFTFGSGTKLEIK
notes: Chimeric; also called 40F1; mouse-derived chimeric antibody QP192193
FACS reading [1]: 11400
FACS reading [2]: 27800
FACS reading [3]: 168000
FACS reading [4]: 155000
FACS reading [5]: 732
MFI [6]: 644000
FACS reading [7]: 74600
CLDN18.2/CLDN18.1 (MFI ratio) [8]: 627
FACS reading [9]: 3790
FACS reading [10]: 177000
EC50 [11]: 0.361 µg/mL
max [11]: 177000

More lines, now with the values ahead:

FACS reading [1]: 11100
FACS reading [2]: 29800
FACS reading [3]: 137000
FACS reading [4]: 177000
FACS reading [5]: 732
MFI [6]: 653000
FACS reading [7]: 82300
CLDN18.2/CLDN18.1 (MFI ratio) [8]: 463
FACS reading [9]: 4790
FACS reading [10]: 138000
EC50 [11]: 0.344 µg/mL
max [11]: 177000
B3: QP14451442 (antibody, human IgG1, kappa, V domains shown)
VH: QVQLVQSGAEVKKPGASVKVSCKASGYAFSSYWMNWVRQAPGQGLEWIGQIYPGNGDTTYNGKFKGRVTMTADKSTSTVYMELSSLRSEDTAVYFCARFVKGNAMDYWGQGTLVTVSS
VL: DIVMTQSPDSLAVSLGERATISCKSSQSLLNSGNQKNYLTWYQQKPGQPPKMLIYWASTRESGVPDRFSGSGSGIDFTLTISSVQAEDVAVYYCQNAYSYPFTFGQGTKLEIKR
notes: Humanized from QP192193

FACS reading [12]: 96200
FACS reading [13]: 6350
FACS reading [14]: 160000
FACS reading [15]: 143000
FACS reading [16]: 732
MFI [6]: 505000
CLDN18.2/CLDN18.1 (MFI ratio) [8]: 510
FACS reading [17]: 2330
FACS reading [18]: 39500
FACS reading [19]: 13900
EC50 [20]: 0.962 µg/mL
max [20]: 143000
B4: QP14501446 (antibody, human IgG1, kappa, V domains shown)
VH: EVQLVESGGGLVQPGGSLRLSCAASGFTFSSFGMHWVRQAPGKGLEWVAYISSGSNSIYYVDTVKGRFTISRDNAKNSLYLQMNSLRDEDTAVYYCARNAYYGNSFDYWGQGTLVTVSS
VL: DIVMTQSPDSLAVSLGERATINCKSSQSLLNSGNQKNYLTWYQQKPGQPPKLLIYWASTRESGVPDRFSGSGSGTDFTLTISSLQAEDVAVYYCQNNYYYPLTFGGGTKVEIKR
notes: Humanized from QP199200

FACS reading [12]: 132000
FACS reading [13]: 6320
FACS reading [14]: 183000
FACS reading [15]: 154000
FACS reading [16]: 732
MFI [6]: 484000
CLDN18.2/CLDN18.1 (MFI ratio) [8]: 487
FACS reading [17]: 2410
FACS reading [18]: 45100
FACS reading [19]: 19200
EC50 [20]: 0.666 µg/mL
max [20]: 154000
B5: QP14491448 (antibody, human IgG1, kappa, V domains shown)
VH: EVQLVESGGGLVQPGGSLRLSCAASGFTFSSFGMHWVRQAPGKGLEWVSYISSGSNSIYYVDTVKGRFTISRDNAKNSLYLQMNSLRDEDTAVYYCARNAYYGNSFDYWGQGTLVTVSS
VL: DIVMTQSPDSLAVSLGERATISCKSSQSLLNSGNQKNYLTWYQQKPGQPPKLLIYWASTRESGVPDRFTGSGSGTVFTLTISSLQAEDVAVYFCQNNYYYPLTFGGGTKVEIKR
notes: Humanized from QP199200

FACS reading [12]: 132000
FACS reading [13]: 7520
FACS reading [14]: 218000
FACS reading [15]: 165000
FACS reading [16]: 732
MFI [6]: 514000
CLDN18.2/CLDN18.1 (MFI ratio) [8]: 560
FACS reading [17]: 2760
FACS reading [18]: 50600
FACS reading [19]: 19900
EC50 [20]: 1.19 µg/mL
max [20]: 165000
B7: QP199200 (antibody, human IgG1, V domains shown)
VH: DVQLVESGGGLVQPGGSRKLSCAASGFTFSSFGMHWVRQAPEKGLEWVAYISSGSNSIYYVDTVKGRFTISRDNPKNTLFLQMTSLKSEDTAMYYCARNAYYGNSFDYWGQGTTLTVSS
VL: DIVMTQSPSSLTVTAGEKVTMSCKSSQSLLNSGNQKNYLTWYQQKPGQPPKLLIYWASTRESGVPDRFTGSGSGTVFTLTISSVQAEDLAVYFCQNNYYYPLTFGAGTKLELK
notes: Chimeric; also called 43C11; mouse-derived chimeric antibody QP199200
